Laboratory results taken from publication PMC553973.

Target: fibronectin 70 kDa N-terminal fragment
Assay: SPR; BIAcore X; FN 70 kDa fragment immobilised on a CM5 chip; HGF (30–500 nM) injected in HEPES saline pH 7.4 with 1 mM MgCl2, 2 mM CaCl2; equilibrium and Scatchard analysis; apparent Kd; n = 3

Kd: 300 nM
Kd of the high affinity site (two-site model): 15 nM
Kd of the low affinity site (two-site model): 4000 nM
Substance: hepatocyte growth factor (from UniProt P14210 32-728) (ligand)
